Results taken from patent US20190367620A1.
Values belong to the binder of their own block, whether it stands above or below them.

What was measured:
[1] = molecular target: human FGFR1 (His-tagged FGFR1b-IIIb or FGFR1b-IIIc; isoform not told at that place) (human) (UniProt P11362); experiment: ELISA on coated human FGFR1b (IIIb or IIIc not told)
[2] = molecular target: human FGFR1 (His-tagged FGFR1b-IIIb or FGFR1b-IIIc; isoform not told at that place) (human) (UniProt P11362); experiment: ELISA on coated human FGFR1b (IIIb or IIIc not told), IgG1 format
[3] = molecular target: T1, FGFR1 D2 point mutant K60A (human), P11362; experiment: SPR as in Example 1.8; settings: remark: other sources report otherwise
T1 chain: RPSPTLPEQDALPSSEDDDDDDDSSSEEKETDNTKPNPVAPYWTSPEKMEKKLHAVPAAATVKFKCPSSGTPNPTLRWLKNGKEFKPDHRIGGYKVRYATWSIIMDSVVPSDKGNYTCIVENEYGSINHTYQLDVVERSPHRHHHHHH

[4] = molecular target: T2, FGFR1 D2 point mutant T61A (human), P11362; experiment: SPR as in Example 1.8; settings: remark: other sources report otherwise
T2 chain: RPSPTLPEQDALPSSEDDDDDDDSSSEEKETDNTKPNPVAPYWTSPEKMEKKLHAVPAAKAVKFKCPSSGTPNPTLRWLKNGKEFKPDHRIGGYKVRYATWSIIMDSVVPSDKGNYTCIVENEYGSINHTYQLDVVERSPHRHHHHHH

[5] = molecular target: T3, FGFR1 D2 point mutant K63A (human), P11362; experiment: SPR as in Example 1.8; settings: remark: other sources report otherwise
T3 chain: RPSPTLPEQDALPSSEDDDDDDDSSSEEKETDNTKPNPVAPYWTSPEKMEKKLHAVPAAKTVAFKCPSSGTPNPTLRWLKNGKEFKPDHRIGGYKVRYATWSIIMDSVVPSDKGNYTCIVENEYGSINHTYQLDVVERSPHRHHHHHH

[6] = molecular target: T4, FGFR1 D2 point mutant K95A (human), P11362; experiment: SPR as in Example 1.8; settings: remark: other sources report otherwise
T4 chain: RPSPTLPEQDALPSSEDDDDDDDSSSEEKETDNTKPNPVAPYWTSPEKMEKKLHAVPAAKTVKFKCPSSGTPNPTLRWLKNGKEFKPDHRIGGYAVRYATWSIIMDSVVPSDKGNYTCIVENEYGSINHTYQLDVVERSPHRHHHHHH

[7] = molecular target: huFGFR1a-IIIc (human) (UniProt P11362); experiment: SPR (Biacore 4000), antibody captured, His-tagged FGFR1 injected; no unit in the table, nM inferred from paragraph 90
Chain of huFGFR1a-IIIc (human) (P11362 22-376): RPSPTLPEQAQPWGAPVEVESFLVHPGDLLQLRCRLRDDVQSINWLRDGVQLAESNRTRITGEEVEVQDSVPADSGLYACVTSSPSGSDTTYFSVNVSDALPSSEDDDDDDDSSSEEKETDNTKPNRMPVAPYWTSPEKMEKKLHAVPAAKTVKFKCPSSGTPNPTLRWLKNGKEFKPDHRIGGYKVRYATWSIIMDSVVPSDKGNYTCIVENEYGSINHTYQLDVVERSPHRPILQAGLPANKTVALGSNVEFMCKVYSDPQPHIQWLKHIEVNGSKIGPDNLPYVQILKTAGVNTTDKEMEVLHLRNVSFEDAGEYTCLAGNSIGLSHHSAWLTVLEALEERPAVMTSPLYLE

[8] = molecular target: T1, FGFR1 D2 point mutant K60A (human), …; experiment: SPR; free energy change relative to wild-type D2; settings: remark: other sources report otherwise
[9] = molecular target: T2, FGFR1 D2 point mutant T61A (human), …; experiment: SPR; free energy change relative to wild-type D2; settings: remark: other sources report otherwise
[10] = molecular target: T3, FGFR1 D2 point mutant K63A (human), …; experiment: SPR; free energy change relative to wild-type D2; settings: remark: other sources report otherwise
[11] = molecular target: T4, FGFR1 D2 point mutant K95A (human), …; experiment: SPR; free energy change relative to wild-type D2; settings: remark: other sources report otherwise

EC50 [1]: 0.015 nM
B1: mAb #D01 IgG1 (antibody, V domains shown)
VH: QVQLQESGPGLVKPSGTLSLTCAVSGGSISSNNWWSWVRQPPGKGLEWIGEIYHSGSTSYNPSLKSRVTISVDKSKNQFSLKLSSVTAADTAVYYCARATDWFDHWGQGTLVTVSS
VL: SYVLTQPPSVSVAPGQTARITCGGNNIGSESVHWYQQKPGQAPVLVVYDDSDRPSGIPERFSGSNSGNTATLTISRVEAGDEADYYCQVWDSTSDHRVFGGGTKLTVLG

EC50 [2]: 0.008 nM
B2: #A08 IgG1 (standard IgG1 built from the #A08 lead heavy and light chains) (antibody, V domains shown)
VH: EVQLQESGPGLVKPSGTLSLTCAVSGGSISSNNWWSWVRQPPGKGLEWIGEIYHSGSTSYNPSLKSRVTISVDKSKNQFSLKLSSVTAADTAVYYCARGTDWFDPWGQGTLVTVSS
VL: SYVLTQPPSVSVAPGQTARITCGGNNIGSESVHWYQQKPGQAPVLVVYDDSDRPSGIPERFSGSNSGNTATLTISRVEAGDEADYYCQVWDSTSDHRVFGGGTKLTVLG

Kd [3]: 13.4 nM
Kd [4]: 5.89 nM
Kd [5]: 13.9 nM
Kd [6]: 5.86 nM
Kd [7]: 0.7 nM
ΔΔGmut [8]: 2.51 kcal/mol
ΔΔGmut [9]: 2.02 kcal/mol
ΔΔGmut [10]: 2.53 kcal/mol
ΔΔGmut [11]: 2.02 kcal/mol
B3: mAb #A08 (antibody, V domains shown)
VH: EVQLQESGPGLVKPSGTLSLTCAVSGGSISSNNWWSWVRQPPGKGLEWIGEIYHSGSTSYNPSLKSRVTISVDKSKNQFSLKLNSVTAADTAVYYCARGTDWFDPWGQGTLVTVSS
VL: QAVLTQPPSVSVAPGQTARITCGGNNIGSESVHWYQQKPGQAPVLVVYDDSDRPSGIPERFSGSNSGNTATLTISRVEAGDEADYYCQVWDSTSDHRVFGGGTKLTVL
